Test results: patent EP3964526A1 (Novartis AG, dated 2022)

Experiments:
[1] = target: VEGF (as used in the VEGFR competition ELISA); assay: competition ELISA against hVEGR1, EC50 ratio to reference Luc; second of two values in the cell
[2] = target: VEGF (as used in the VEGFR competition ELISA); assay: competition ELISA against hVEGR1, EC50 ratio to reference Luc; first of two values in the cell
[3] = target: T1, recombinant human VEGF165 (PeproTech EC Ltd.) (human, UniProt P15692-4 27-191); assay: SPR BIAcore T100, hVEGF165 amine-coupled on CM4 chip, scFv as analyte
T1 construct: Amine-coupled to a CM4 sensor chip; also called hVEGF165
T1 sequence (P15692 other isoform, or with tags, fused parts or gaps limits assumed): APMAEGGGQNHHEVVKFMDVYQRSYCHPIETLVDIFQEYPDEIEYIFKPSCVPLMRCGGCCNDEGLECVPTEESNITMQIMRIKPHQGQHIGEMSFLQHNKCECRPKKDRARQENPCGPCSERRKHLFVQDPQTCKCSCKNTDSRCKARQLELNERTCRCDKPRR

Chain of VEGF (as used in the VEGFR competition ELISA) (P15692 whole entry): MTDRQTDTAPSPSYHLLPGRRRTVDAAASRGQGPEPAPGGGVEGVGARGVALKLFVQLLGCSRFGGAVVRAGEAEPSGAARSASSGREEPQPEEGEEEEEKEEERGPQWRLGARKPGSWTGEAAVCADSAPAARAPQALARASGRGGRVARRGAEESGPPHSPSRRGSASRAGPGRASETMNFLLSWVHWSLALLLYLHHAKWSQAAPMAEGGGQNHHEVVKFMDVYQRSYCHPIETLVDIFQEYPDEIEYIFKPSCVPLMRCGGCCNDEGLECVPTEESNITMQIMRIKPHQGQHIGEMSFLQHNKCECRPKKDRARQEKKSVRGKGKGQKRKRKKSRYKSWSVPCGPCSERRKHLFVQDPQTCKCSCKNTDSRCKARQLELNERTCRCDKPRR

B1: 578-max (scFv)
chain: EIVMTQSPSTLSASVGDRVIITCQASEIIHSWLAWYQQKPGKAPKLLIYLASTLASGVPSRFSGSGSGTQFTLTISSLQPDDFATYYCQNVYLASTNGANFGQGTKLTVLGGGGGSGGGGSGGGGSGGGGSEVQLVESGGGLVQPGGSLRLSCTASGFSLTDYYYMTWVRQAPGKGLEWVGFIDPDDDPYYATWAKGRFTISRDTSKNTVYLQMNSLRAEDTAVYYCAGGDHNSGWGLDIWGQGTLVTVSS
Rel. activity hVEGR1 comp. ELISA (EC50Luc[nM]/EC50test[nM]) [1]: 51.6 ratio | Rel. activity hVEGR1 comp. ELISA (EC50Luc[nM]/EC50test[nM]) [2]: 35.5 ratio | Kd [3]: 439 pM | koff [3]: 0.000307 s⁻¹ | kon [3]: 700000 M⁻¹ s⁻¹
